Reference: article PMC5454378, “Histone deacetylase 10 structure and molecular function as a polyamine deacetylase” (Nature Communications, 2017)

Tests used:
Assay in all cases: purified protein, by the assay type
[1] = substrate: CC(=O)NCCCCCCCCN; parameters: steady-state kinetics of acetylpolyamine deacetylation, discontinuous LC-MS after dansyl chloride derivatization; details: 50.0 °C
Description: (§1) To study steady-state kinetics with non-fluorogenic peptide substrates and acetylpolyamines, a discontinuous LC–MS was employed based on the protocol of assaying nonfluorogenic acetyllysine peptide substrates for HDAC6 (ref. [17]). Assays were performed in triplicate. Briefly, 5 μl of enzyme (0.050–20 μM) in HEPES buffer (20 mM HEPES (pH 7.5), 100 mM NaCl, 5 mM KCl, 1 mM MgCl2) was added to 35 μl of substrate solution to initiate the reaction. After incubation for 15–60 min at room temperature, the reaction was quenched by addition of 50 μl of 20 mM dansyl chloride dissolved in acetonitrile followed by 10 μl of NaHCO3 (1.6 M, pH 10.0). The deacetylation products were derivatized with dansyl chloride at 50 °C for 2 hrs. The deacetylation products were detected by LC–MS using a Waters SQD equipped with an Acquity UPLC (Waters, Milford, MA, USA) and quantified by using the standard curves generated from the mass signals of the corresponding deacetylated polyamines and peptides. Inhibition of HDAC10 activity was measured by using 0.49 μM zHDAC10 with 192 μM N^8-acetylspermidine. Data were analysed by logistic regression for IC50 determination and the inhibition constant Ki was calculated based on the Cheng-Prusoff equation, Ki=IC50 / (1+[S]/KM)[45]. Assays were performed in triplicate at room temperature. We next tested the PDAC activity of hHDAC10 and zHDAC10 against several polyamine substrates using the LC–MS assay (Fig. 2, Supplementary Fig. 3 and Supplementary Table 1). […] For hHDAC10 and zHDAC10, kcat/KM=2,900±200 and 4,600±300 M^−1 s^−1, respectively; in comparison, N^1-acetylspermidine was a poor substrate with kcat/KM=24±5 and 7±2 M^−1 s^−1, respectively. Substrate specificity trends observed for zHDAC10 and hHDAC10 matched those of the previously reported mammalian N^8-acetylspermidine deacetylase activity. […] As a negative control, we examined the N^8-acetylspermidine deacetylase activity of human and zebrafish HDAC6 (ref. [17]). HDAC6 preferentially catalyses the deacetylation of the peptide substrate RGK(ac)-AMC with a catalytic efficiency >100-fold greater than that for the deacetylation of N^8-acetylspermidine. Therefore, HDAC6 is clearly an acetyllysine deacetylase and HDAC10 is an N^8-acetylspermidine deacetylase. It is notable that the molecular function of HDAC10 coincides with the cellular function of the cytosolic PDAC indicated in Fig. 1a.

[2] = substrate: CC(=O)NCCCCCN; parameters: steady-state kinetics of acetylpolyamine deacetylation, discontinuous LC-MS after dansyl chloride derivatization; details: 50.0 °C
Description: as §1

[3] = substrate: CC(=O)NCCCCNCCCN; parameters: steady-state kinetics of acetylpolyamine deacetylation, discontinuous LC-MS after dansyl chloride derivatization; details: 50.0 °C
Description: as §1

[4] = substrate: CC(=O)NCCCN; parameters: steady-state kinetics of acetylpolyamine deacetylation, discontinuous LC-MS after dansyl chloride derivatization; details: 50.0 °C
Description: as §1

[5] = substrate: CC(=O)NCCCNCCCCN; parameters: steady-state kinetics of acetylpolyamine deacetylation, discontinuous LC-MS after dansyl chloride derivatization; details: 50.0 °C
Description: as §1

[6] = substrate: CC(=O)NCCCNCCCCNCCCN; parameters: steady-state kinetics of acetylpolyamine deacetylation, discontinuous LC-MS after dansyl chloride derivatization; details: 50.0 °C
Description: as §1

[7] = substrate: CC(=O)NCCCC[C@H](NC(C)=O)C(N)=O; parameters: discontinuous LC-MS deacetylation assay, dansylated product quantified, steady-state kinetics; details: 50.0 °C
Description: To study steady-state kinetics with non-fluorogenic peptide substrates and acetylpolyamines, a discontinuous LC–MS was employed based on the protocol of assaying nonfluorogenic acetyllysine peptide substrates for HDAC6 (ref. [17]). Assays were performed in triplicate. Briefly, 5 μl of enzyme (0.050–20 μM) in HEPES buffer (20 mM HEPES (pH 7.5), 100 mM NaCl, 5 mM KCl, 1 mM MgCl2) was added to 35 μl of substrate solution to initiate the reaction. After incubation for 15–60 min at room temperature, the reaction was quenched by addition of 50 μl of 20 mM dansyl chloride dissolved in acetonitrile followed by 10 μl of NaHCO3 (1.6 M, pH 10.0). The deacetylation products were derivatized with dansyl chloride at 50 °C for 2 hrs. The deacetylation products were detected by LC–MS using a Waters SQD equipped with an Acquity UPLC (Waters, Milford, MA, USA) and quantified by using the standard curves generated from the mass signals of the corresponding deacetylated polyamines and peptides. Inhibition of HDAC10 activity was measured by using 0.49 μM zHDAC10 with 192 μM N^8-acetylspermidine. Data were analysed by logistic regression for IC50 determination and the inhibition constant Ki was calculated based on the Cheng-Prusoff equation, Ki=IC50 / (1+[S]/KM)[45]. Assays were performed in triplicate at room temperature.

[8] = substrate: CC(=O)NCCCC[C@H](NC(=O)[C@H](C)NC(=O)CNC(C)=O)C(=O)Nc1ccc2c(C)cc(=O)oc2c1; parameters: fluorogenic AMC-conjugated acetyllysine peptide deacetylation, steady-state kinetics
From the text: To determine steady-state kinetic parameters for the hydrolysis of a variety of acetylpolyamine and acetyllysine substrates, we prepared full-length recombinant HDAC10 from human (H. sapiens, hHDAC10) and zebrafish (D. rerio, zHDAC10). The CDs of these orthologues are highly similar based on 63%/79% sequence identity/similarity; only full-length constructs yielded soluble proteins. We first assayed the lysine deacetylase activity of these constructs against two commercially available aminomethylcoumarin (AMC)-conjugated fluorogenic acetyllysine peptides, GAK(ac)-AMC and RGK(ac)-AMC (molecular structures of all substrates are shown in Supplementary Fig. 2). […] These measurements were consistent with earlier studies reporting that HDAC10 activity was not measurable using fluorogenic peptide substrates. We also tested activity with 11 non-fluorogenic acetyllysine substrates using a […] chromatography–mass spectrometry (LC–MS)-based discontinuous assay[17] to avoid potential steric clashes that might occur with the bulky AMC group. These substrates included K(ac)NL and GAK(ac)NLQ, which mimic the peptide segment containing K73 in the proposed HDAC10 substrate MutS homologue 2 (MSH2)[22]. Again, we observed no or very low catalytic activity (Fig. 2 and Supplementary Table 1). In comparison with its closest relative, the cytosolic isozyme HDAC6 (ref. [17]), HDAC10 was clearly not an efficient lysine deacetylase.

[9] = substrate: CC(=O)NCCCCN; parameters: steady-state kinetics of acetylpolyamine deacetylation, discontinuous LC-MS after dansyl chloride derivatization; details: 50.0 °C
Description: as §1

B1: acetylpolyamine amidohydrolase (APAH) (Mycoplana ramosa) (protein)
chain: MRVIFSEDHKLRNAKTELYGGELVPPFEAPFRAEWILAAVKEAGFDDVVAPARHGLETVLKVHDAGYLNFLETAWDRWKAAGYKGEAIATSFPVRRTSPRIPTDIEGQIGYYCNAAETAISPGTWEAALSSMASAIDGADLIAAGHKAAFSLCRPPGHHAGIDMFGGYCFINNAAVAAQRLLDKGAKKIAILDVDFHHGNGTQDIFYERGDVFFASLHGDPAEAFPHFLGYAEETGKGAGAGTTANYPMGRGTPYSVWGEALTDSLKRIAAFGAEAIVVSLGVDTFEQDPISFFKLTSPDYITMGRTIAASGVPLLVVMEGGYGVPEIGLNVANVLKGVAG
Q: Which Km [1] does the source give for B1 here?
A: 110 ± 20 µM

Q: What about the kcat [1] of the same protein?
A: 1.1 ± 0.1 s⁻¹

Q: What about the kcat/Km [1] of the same protein?
A: 10000 ± 1000 M⁻¹ s⁻¹

Q: And the Km [2]?
A: 22 ± 4 µM

Q: What about the kcat [2] of the same protein?
A: 1.5 ± 0.1 s⁻¹

Q: And the kcat/Km [2]?
A: 68000 ± 7000 M⁻¹ s⁻¹

Q: And the Km [3]?
A: 80 ± 20 µM

Q: And the kcat [3]?
A: 2.5 ± 0.3 s⁻¹

Q: And the kcat/Km [3]?
A: 30000 ± 5000 M⁻¹ s⁻¹

Q: What about the Km [4] of the same protein?
A: 180 ± 60 µM

Q: What about the kcat [4] of the same protein?
A: 1.3 ± 0.2 s⁻¹

Q: What about the kcat/Km [4] of the same protein?
A: 7000 ± 1000 M⁻¹ s⁻¹

Q: What about the Km [5] of the same protein?
A: 70 ± 20 µM

Q: What about the kcat [5] of the same protein?
A: 0.6 ± 0.05 s⁻¹

Q: And the kcat/Km [5]?
A: 7400 ± 600 M⁻¹ s⁻¹

Q: What about the Km [6] of the same protein?
A: 60 ± 10 µM

Q: And the kcat [6]?
A: 0.2 ± 0.01 s⁻¹

Q: What about the kcat/Km [6] of the same protein?
A: 2500 ± 900 M⁻¹ s⁻¹

Q: What about the Km [7] of the same protein?
A: 220 ± 70 µM

Q: And the kcat [7]?
A: 0.13 ± 0.02 s⁻¹

Q: And the kcat/Km [7]?
A: 600 ± 100 M⁻¹ s⁻¹

Q: What about the Km [8] of the same protein?
A: 120 ± 20 µM

Q: And the kcat [8]?
A: 0.0067 ± 0.0005 s⁻¹

Q: And the kcat/Km [8]?
A: 50 ± 5 M⁻¹ s⁻¹

B2: zHDAC10Δ (Danio rerio) (protein)
chain: MASGSALIFDEEMSRYKLLWTDPACEIEVPERLTVSYEALRTHGLAQRCKAVPVRQATEQEILLAHSEEYLEAVKQTPGMNVEELMAFSKKYNDVYFHQNIYHCAKLAAGATLQLVDSVMKREVRNGMALVRPPGHHSQRSAANGFCVFNNVAIAALYAKKNYNLNRILIVDWDVHHGQGIQYCFEEDPSVLYFSWHRYEHQSFWPNLPESDYSSVGKGKGSGFNINLPWNKVGMTNSDYLAAFFHVLLPVAYEFDPELVIVSAGFDSAIGDPEGEMCALPEIFAHLTHLLMPLAAGKMCVVLEGGYNLTSLGQSVCQTVHSLLGDPTPRISGLGTACDSALESIQNVRNVQSSYWSSFKHLAQSETNPKRPRLDATNGGPKESSEPASESNPKKTAQDIVWPEPLKRMPASVRTVVVPPPGVELTLPKNCQHSGDISESTAKEVQRIRDKHFHDLTDQNILRSLGNIISVLDRMMRSDEVCNGCVVVSDLSVSVQCALQHALTEPAERVLVVYVGDGELPVKTNDGKVFLVQICTKETEDKCVNRLSLCLREGESLTAGFMQALLGLILPVAYEFNPALVLGIVGETAAKTGLMTVWGHMTCLIQGLARGRTLTLLQGYDKDLLELTVSALSGASISPLGPLRALKPEDVEMMEKQRQRLQERWGLLRCTVSES
notes: proteolytically (trypsin) nicked zHDAC10, heterodimer of PDAC and pseudo-deacetylase domains
Q: What does the source list for B2?
A: Km [2]: 60 ± 10 µM; kcat [2]: 0.036 ± 0.002 s⁻¹; kcat/Km [2]: 600 ± 80 M⁻¹ s⁻¹; Km [9]: 80 ± 30 µM; kcat [9]: 0.081 ± 0.009 s⁻¹; kcat/Km [9]: 980 ± 90 M⁻¹ s⁻¹; Km [3]: 70 ± 30 µM; kcat [3]: 0.06 ± 0.007 s⁻¹; kcat/Km [3]: 800 ± 100 M⁻¹ s⁻¹; Km [8]: 40 ± 20 µM

B3: hHDAC6 CD12 (Homo sapiens) (protein)
chain: MTSTGQDSTTTRQRRSRQNPQSPPQDSSVTSKRNIKKGAVPRSIPNLAEVKKKGKMKKLGQAMEEDLIVGLQGMDLNLEAEALAGTGLVLDEQLNEFHCLWDDSFPEGPERLHAIKEQLIQEGLLDRCVSFQARFAEKEELMLVHSLEYIDLMETTQYMNEGELRVLADTYDSVYLHPNSYSCACLASGSVLRLVDAVLGAEIRNGMAIIRPPGHHAQHSLMDGYCMFNHVAVAARYAQQKHRIRRVLIVDWDVHHGQGTQFTFDQDPSVLYFSIHRYEQGRFWPHLKASNWSTTGFGQGQGYTINVPWNQVGMRDADYIAAFLHVLLPVALEFQPQLVLVAAGFDALQGDPKGEMAATPAGFAQLTHLLMGLAGGKLILSLEGGYNLRALAEGVSASLHTLLGDPCPMLESPGAPCRSAQASVSCALEALEPFWEVLVRSTETVERDNMEEDNVEESEEEGPWEPPVLPILTWPVLQSRTGLVYDQNMMNHCNLWDSHHPEVPQRILRIMCRLEELGLAGRCLTLTPRPATEAELLTCHSAEYVGHLRATEKMKTRELHRESSNFDSIYICPSTFACAQLATGAACRLVEAVLSGEVLNGAAVVRPPGHHAEQDAACGFCFFNSVAVAARHAQTISGHALRILIVDWDVHHGNGTQHMFEDDPSVLYVSLHRYDHGTFFPMGDEGASSQIGRAAGTGFTVNVAWNGPRMGDADYLAAWHRLVLPIAYEFNPELVLVSAGFDAARGDPLGGCQVSPEGYAHLTHLLMGLASGRIILILEGGYNLTSISESMAACTRSLLGDPPPLLTLPRPPLSGALASITETIQVHRRYWRSLRVMKVEDREGPSSSKLVTKKAPQPAKPRLAERMTTREKKVLEAGMGKVTSASFGEESTPGQTNSETAVVALTQDQPSEAATGGATLAQTISEAAIGGAMLGQTTSEEAVGGATPDQTTSEETVGGAILDQTTSEDAVGGATLGQTTSEEAVGGATLAQTTSEAAMEGATLDQTTSEEAPGGTELIQTPLASSTDHQTPPTSPVQGTTPQISPSTLIGSLRTLELGSESQGASESQAPGEENLLGEAAGGQDMADSMLMQGSRGLTDQAIFYAVTPLPWCPHLVAVCPIPAAGLDVTQPCGDCGTIQENWVCLSCYQVYCGRYINGHMLQHHGNSGHPLVLSYIDLSAWCYYCQAYVHHQALLDVKNIAHQNKFGEDMPHPH
notes: both catalytic domains CD1-CD2
Q: What does the source list for B3?
A: Km [8]: 14 ± 2 µM; kcat [8]: 0.039 ± 0.007 s⁻¹; kcat/Km [8]: 2800 ± 400 M⁻¹ s⁻¹
